# Laboratory results taken from the RNAGym collection of RNA variant scans (doi:10.7554/elife.80360).
# B1: HDV Ribozyme (parent)
# chain: GGCCGGCAUGGUCCCAGCCUCCUCGCUGGCGCCGGCUGGGCAACAUUCCGAGGGGACCGUCCCCUCGGUAAUGGCGAAUGGGACCCA
# Variants of: B1
# Test: self-cleavage, relative activity (ratio to wild type); higher = more cleavage; co-transcriptional
row,Variant,self-cleavage
1,GGCCUGCAUGGUCCCAGCCUCCUCGCUGGCGCCGGCUGGGCAACAUUCCGAGGGGACCGUCCCCUCGGUAAUGGCGAAUGGGACCCG,0.636
2,GGCCUGCAUGGUCCCAGCCUCCUCGAUGGCGCCGGCUGGGCAACAUUCCGAGGGGACCGUCCCCUCGGUAAUGGCGAAUGGGACCCA,0.697
3,GGCCUGCAUGGUCCCAGCCUCCUCGCUGGCGCCGGCUGGGCAACAUUCCGAGGGGACCGUCCCGUCGGUAAUGGCGAAUGGGACCCA,0.161
4,GGCCUGCAUGGUCCCAGCCUCCUCGCUGGCGCCGGCUGGGCAACAUUCCGAGGGGACCGUCCCUUCGGUAAUGGCGAAUGGGACCCA,0.499
5,GGCCCGCAUGGUCCCAGCCUCCUCGCUGGCGCCGGCUGGGCAACAUUCCGAGGGGACCGUCCCCUCGGUAAUGGCGAAUGGGACCUA,0.172
6,GGCCUGCAUGGUCCCAGCCUCCUCGCUGGCGCCGGCUGGGCAACAUUCCGAGGGGAGCGUCCCCUCGGUAAUGGCGAAUGGGACCCA,0.256
7,GGCCUGCAUGGUCCCAGCCUCCUCGCUGGCGCCGGCUGGGCAACAUUCCGAGGGGAUCGUCCCCUCGGUAAUGGCGAAUGGGACCCA,0.604
8,GGCCCGCAUGGUCCCAGCCUCCUCGCUGGCGCCGGCUGGGCAACAUUCCGAGGCGACCGUCCCCUCGGUAAUGGCGAAUGGGACCCA,0.158
9,GGCCCGCAUGGUCCCAGCCUCCUCGCUGGCGCCGGCUGGGCAACAUUCCGAGGUGACCGUCCCCUCGGUAAUGGCGAAUGGGACCCA,0.217
10,GGCCCGCAUGCUCCCAGCCUCCUCGCUGGCGCCGGCUGGGCAACAUUCCGAGGGGACCGUCCCCUCGGUAAUGGCGAAUGGGACCCA,0.196
11,GGCCUGCAUGGUCCCAGCCUCCUCGCUGGCGCCGGCUGGGCAACAUUCCGAGGGGACCGUCCCCUCGGUGAUGGCGAAUGGGACCCA,0.375
12,GGCCUGCAUGGUCCCAGCCUCCUUGCUGGCGCCGGCUGGGCAACAUUCCGAGGGGACCGUCCCCUCGGUAAUGGCGAAUGGGACCCA,0.115
13,GGCCUGCAUGGUCCCAGCCUCCUGGCUGGCGCCGGCUGGGCAACAUUCCGAGGGGACCGUCCCCUCGGUAAUGGCGAAUGGGACCCA,0
14,GGCCUGCAUGGUCCUAGCCUCCUCGCUGGCGCCGGCUGGGCAACAUUCCGAGGGGACCGUCCCCUCGGUAAUGGCGAAUGGGACCCA,0.723
15,GGCCUGCAUGGUCCAAGCCUCCUCGCUGGCGCCGGCUGGGCAACAUUCCGAGGGGACCGUCCCCUCGGUAAUGGCGAAUGGGACCCA,0.0831
16,GGCCUGCAUGGUCCCAGCCUCCUCGCUGGCGACGGCUGGGCAACAUUCCGAGGGGACCGUCCCCUCGGUAAUGGCGAAUGGGACCCA,0.0875

row,Variant,self-cleavage
1,GGCCUGCAUGGUCCCAGCCUCCUCGCUGGCGGCGGCUGGGCAACAUUCCGAGGGGACCGUCCCCUCGGUAAUGGCGAAUGGGACCCA,0.196
2,GGCCUGCAUGGUCCCAGCCUCAUCGCUGGCGCCGGCUGGGCAACAUUCCGAGGGGACCGUCCCCUCGGUAAUGGCGAAUGGGACCCA,0.0415
3,GGCCCGCAUGGUCCCAGCCUCCUCGCUGGCGCCGGCUGGGCAACAUUCCGAGGGGACCAUCCCCUCGGUAAUGGCGAAUGGGACCCA,0.344
4,GGCCUGCAUGGUCCCAGCCUCCUCGCUGGCGCAGGCUGGGCAACAUUCCGAGGGGACCGUCCCCUCGGUAAUGGCGAAUGGGACCCA,0.898
5,GGCCCGCAUGGUCCCAGCCUCCUCUCUGGCGCCGGCUGGGCAACAUUCCGAGGGGACCGUCCCCUCGGUAAUGGCGAAUGGGACCCA,0.0475
6,GGCCUGCAUGGUCCCAGCCUGCUCGCUGGCGCCGGCUGGGCAACAUUCCGAGGGGACCGUCCCCUCGGUAAUGGCGAAUGGGACCCA,0.0791
7,GGCCUGCAUGGUCCCAGCCUUCUCGCUGGCGCCGGCUGGGCAACAUUCCGAGGGGACCGUCCCCUCGGUAAUGGCGAAUGGGACCCA,0.0462
8,GGCCCGCAUGGUCCCAGCCUCCUCGCUGGCGCCGGCUGGGCAACAUUCCGAGGGGACCGUCCCCACGGUAAUGGCGAAUGGGACCCA,0.246
9,GGCCCGCAUGGUCCCAGCCUCCUCGCUGGCGCCGGCUGGGCAACAUUCCGAGGGGACCGUCCCCUCGGUAAUGACGAAUGGGACCCA,0.0898
10,GGCCCGCAUGGUCCCAUCCUCCUCGCUGGCGCCGGCUGGGCAACAUUCCGAGGGGACCGUCCCCUCGGUAAUGGCGAAUGGGACCCA,0
11,GGCCCGCAUGGUCCCAACCUCCUCGCUGGCGCCGGCUGGGCAACAUUCCGAGGGGACCGUCCCCUCGGUAAUGGCGAAUGGGACCCA,0.0852
12,GGCCUGCAUGGUCCCAGCCUCCUCGCUGGCGCCGGCUGGGCAACAUUCCGAGGGGACCGUCCCCUCGGUAAUGGCGGAUGGGACCCA,0.227
13,GGCCUGCAUGGUCCCAGCCUCCUCGCUGGCGCCGGCUGGGCAACAUUCCGAGGGGACCGUCGCCUCGGUAAUGGCGAAUGGGACCCA,0.346
14,GGCCCGCAUGGUCCCAGCCUCCUCGCUGGCGCCGGCUGGGCAACAUUCCGAGGGGACCGUCCCCUCGGUAAUGGCGAAUUGGACCCA,0.124
15,GGCCCGCAUGGUCCCAGCCUCCUCGCUGGCGCCGGCUGGGCAACAUUCCAAGGGGACCGUCCCCUCGGUAAUGGCGAAUGGGACCCA,0.302
16,GGCCCGCAUGGUCCCAGCCUCCUCGCUGGCGCCGGCUGGGCAACAUUCCGAGGGGACCGUCCCCUCGGUAAUGGCGAAUGGAACCCA,0.123
